Experimental data: the RNAGym collection of RNA variant scans (doi:10.7554/elife.90254)

B1: OR4K15 (parent)
chain: GUUAACGGUCAUAGGCCAUGGAAACUAGGAGCACCAUUUCGCUGCCAGUGAAGAAAUGAACAAAGAAAAUCUGGGCCAGGCAGGCAUCAAAAGAAAUAGUCUUGCGCUCAACCAGAAAGUCUGUAAUCAUUUUAAGGGUA

Variants of: B1
Assay: self-cleavage, relative activity (ratio to wild type); higher = more cleavage; in vitro, sequencing; the parent is a self-cleaving ribozyme
For A52U A78G, the self-cleavage was 0.24. For A51G G53U, the self-cleavage was 1.66. For A51C A62G, the self-cleavage was 0.72. In the case of U49G U108A, the self-cleavage is reported as 0.04. In the case of A52C A78C, the self-cleavage is reported as 0.21. With U49G A95G the self-cleavage was 1.28. A52C A63G gave a self-cleavage of 2.56. For A51U A126G, the self-cleavage was 1.46. In the case of U49C A135C, the self-cleavage is reported as 0.89. U49C A135G showed a self-cleavage of 1.97. A52G A90U showed a self-cleavage of 1.81. With A52G A90G the self-cleavage was 0.99. A52G A96U showed a self-cleavage of 1.86. With A51G U131A the self-cleavage was 0.59. For A52C A66G, the self-cleavage was 1.59. With U49G G83A the self-cleavage was 0.47. With G53U A59G the self-cleavage was 1.26. A51U U122C showed a self-cleavage of 1.26. Variant A51U U122A has a self-cleavage of 0.74. Variant G50U G79A has a self-cleavage of 0.11. Variant A51C A91G has a self-cleavage of 1.33. For A51U U103C, the self-cleavage was 1.35. With A51U U70C the self-cleavage was 0.46. U49C U127A showed a self-cleavage of 2.43. U49C U127G showed a self-cleavage of 1.49. U49C U127C showed a self-cleavage of 0.94. Variant A51U A96G has a self-cleavage of 1.32. For G50U A62C, the self-cleavage was 2.27. Work on A52G A118G yielded a self-cleavage of 1.21. Work on A51C A92U yielded a self-cleavage of 0.57. In the case of U49C U139C, the self-cleavage is reported as 1.71. U49C G73A showed a self-cleavage of 0.28. A52U A125G gave a self-cleavage of 0.79. Work on A51C A68G yielded a self-cleavage of 1.2. With A51U A60G the self-cleavage was 0.92. A51U A114G gave a self-cleavage of 0.19. With U49C G50U the self-cleavage was 2.22. In the case of G53A U102A, the self-cleavage is reported as 0.68. In the case of A52G U127C, the self-cleavage is reported as 0.95. In the case of A52G C121U, the self-cleavage is reported as 1.18. For A52G C121G, the self-cleavage was 2.33. A51G A78U showed a self-cleavage of 0.35. Variant G50A U100G has a self-cleavage of 0.96. Variant G50A U100C has a self-cleavage of 2.01. A51U A90G showed a self-cleavage of 0.91. With U49C U131C the self-cleavage was 1.11. With G53A U103C the self-cleavage was 0.64. A52U A90U showed a self-cleavage of 2.35. Variant A52U A90G has a self-cleavage of 0.38. For U49C U87C, the self-cleavage was 1.58. For U49C C85G, the self-cleavage was 1.62. A51U G104A gave a self-cleavage of 0.01. Work on A51G A52U yielded a self-cleavage of 1.49. In the case of A51G A52G, the self-cleavage is reported as 1.46. With U49C U97C the self-cleavage was 1.29. For A52C U103A, the self-cleavage was 0.98. A52U A69G showed a self-cleavage of 2.44. Work on A52U A69U yielded a self-cleavage of 1.98. Work on A52C U87C yielded a self-cleavage of 1.09. Variant A52U A96G has a self-cleavage of 1.91. G50A C71U showed a self-cleavage of 0.42. For U49C U102C, the self-cleavage was 2. Work on U49C U102A yielded a self-cleavage of 0.53. Work on A52G U133C yielded a self-cleavage of 1.33. A52U U127C gave a self-cleavage of 0.98. In the case of U49G U72A, the self-cleavage is reported as 0.32. A51C A60G showed a self-cleavage of 2.31. For A51U G84A, the self-cleavage was 0.65. Variant A52G A55G has a self-cleavage of 0.97. A52U A98U showed a self-cleavage of 1.72. A52U U70C showed a self-cleavage of 1.72. Variant A52G U57C has a self-cleavage of 1.1. A52G G83A gave a self-cleavage of 1.07. A52C A62G gave a self-cleavage of 0.91. Variant G53U A126G has a self-cleavage of 1.4. A51G A54G gave a self-cleavage of 0.81. For A51U A111G, the self-cleavage was 0.04. With A51U A111U the self-cleavage was 0.06. In the case of A52U A55U, the self-cleavage is reported as 1.62. With A52U A55G the self-cleavage was 1.07. In the case of A52G A135G, the self-cleavage is reported as 1.44. A52G A135U showed a self-cleavage of 1.37. Work on A52U U87A yielded a self-cleavage of 1.78. A52G A67G gave a self-cleavage of 1.13. Variant A52G A69G has a self-cleavage of 0.65. A52U U130C gave a self-cleavage of 1.8. Work on A51G A62U yielded a self-cleavage of 1.49. In the case of A51U A59U, the self-cleavage is reported as 0.5. For A51U G58A, the self-cleavage was 1.56. Variant A51C G73C has a self-cleavage of 0. For A51U A82C, the self-cleavage was 0.24. Variant A52G A82G has a self-cleavage of 0.19. A52G A82U showed a self-cleavage of 0.2. G50A A92U showed a self-cleavage of 2.15. Variant A51G A82U has a self-cleavage of 0.25. Variant A51G A116G has a self-cleavage of 0.48. A51G A116U showed a self-cleavage of 0.05. A52C G84U showed a self-cleavage of 0.51. For A52G A91U, the self-cleavage was 2.17. U49G A62U gave a self-cleavage of 0.74. With G53A A78U the self-cleavage was 0.52. G53A A78G gave a self-cleavage of 0.22. Work on U49C U108C yielded a self-cleavage of 0.01. In the case of A52U U97C, the self-cleavage is reported as 0.96. With A51U A68G the self-cleavage was 1.24. In the case of A51U A68C, the self-cleavage is reported as 1.91. Variant A52G A114G has a self-cleavage of 0.28. Work on A52G A114U yielded a self-cleavage of 0.14. U49C G123U showed a self-cleavage of 0.88. For A51G U130C, the self-cleavage was 0.54. With A51U A94U the self-cleavage was 1.26. A51U A94C gave a self-cleavage of 0.55. Work on A51G U87A yielded a self-cleavage of 1.3. With A51G U87C the self-cleavage was 0.86. A51U U87C gave a self-cleavage of 0.54. U49C U72C gave a self-cleavage of 0.3. Work on G50U A52G yielded a self-cleavage of 0.42. G50A A69G gave a self-cleavage of 1.85. In the case of A52G C76G, the self-cleavage is reported as 0.03. A52G C76U gave a self-cleavage of 0.13. Variant A52C A126G has a self-cleavage of 0.42. A51G A126C showed a self-cleavage of 0.91. With A51U U124C the self-cleavage was 0.77. For A52U U120C, the self-cleavage was 1.21. With A51G A96G the self-cleavage was 1.47. In the case of A52U U100C, the self-cleavage is reported as 2.57. With A52G A98U the self-cleavage was 2.16. With A51G A129U the self-cleavage was 0.76. A52G U72A showed a self-cleavage of 0.4. U49G U130A gave a self-cleavage of 0.36. For G53C U57G, the self-cleavage was 0.65. Work on G53U A82U yielded a self-cleavage of 0.27. For A51G U133C, the self-cleavage was 1.46. With A51U A98U the self-cleavage was 2.9. Work on A51C A117G yielded a self-cleavage of 0.81. With A51G G79U the self-cleavage was 0.1. For A51G G79A, the self-cleavage was 0.23. Work on U49C U122C yielded a self-cleavage of 0.52. In the case of A51U G74A, the self-cleavage is reported as 0.22. A51G A118U showed a self-cleavage of 0.39. A51U A55G showed a self-cleavage of 0.55. Work on A52G U131C yielded a self-cleavage of 1.51. In the case of U49G A59G, the self-cleavage is reported as 0.95. U49G A59U gave a self-cleavage of 1.34. With A52G A117U the self-cleavage was 0.97. In the case of A52U U72G, the self-cleavage is reported as 0.39. Variant A52U U72C has a self-cleavage of 0.17. With A52C U127A the self-cleavage was 1.62. In the case of U49C U103C, the self-cleavage is reported as 1.01. Variant G50U U100G has a self-cleavage of 1.34. A52U U131C gave a self-cleavage of 0.4. With A51G C121U the self-cleavage was 2.74. A52G U100A showed a self-cleavage of 0.65. Variant A52G U100C has a self-cleavage of 2.01. In the case of G53A A54U, the self-cleavage is reported as 1.67. Variant A51G A94G has a self-cleavage of 1.2. For G53A, the self-cleavage was 1.21. With G53U the self-cleavage was 1.7. With G53C the self-cleavage was 1.74. For G53A G75A, the self-cleavage was 0.09. Work on G53U C112U yielded a self-cleavage of 0.01. Variant A52G A66U has a self-cleavage of 1.54. For A52G A66G, the self-cleavage was 1.75. Variant A52G U70A has a self-cleavage of 0.45. In the case of A52G U70C, the self-cleavage is reported as 0.79. In the case of A52G C128U, the self-cleavage is reported as 1.26. For A52C A94G, the self-cleavage was 2.5.
